Assay results from PMC6003922, “Functional switching of ascorbate peroxidase 2 of rice (OsAPX2) between peroxidase and molecular chaperone” (Scientific Reports, 2018).

Biological target: the molecule itself
Assay: SEC; Superdex 200 10/300 GL, FPLC, 50 mM Tris-HCl pH 7.5, 100 mM NaCl, 0.5 mL/min, 4 °C; four fractions: F1 HMW complexes (>2,000 kDa), F2 and F3 LMW forms (between 158 and 440 kDa), F4 major dimeric form

B1: recombinant Oryza sativa ascorbate peroxidase 2 (OsAPX2) protein (enzyme, UniProt Q9FE01 1-251, looked up)
chain: MGSKSYPTVSDEYLAAVGKAKRKLRGLIAEKNCAPLMLRLAWHSAGTFDVSSRTGGPFGTMKNPGEQSHAANAGLDIAVRLLDPIKDQLPILSYADFYQLAGVVAVEVTGGPEVPFHPGRQDKPEPPPEGRLPDATQGSDHLRQVFSAQMGLSDKDIVALSGGHTLGRCHKERSGFEGAWTSNPLIFDNSYFTELVSGEKEGLLQLPSDKALMADPAFRPLVEKYAADEDAFFADYAEAHLKLSELGFAEE
notes: Ascorbate peroxidase 2 (OsAPX2), cytosolic, Oryza sativa; the OsAPX2 gene cloned into pET28a; monomer of approximately 27 kDa on reducing SDS-PAGE; Haem-containing peroxidase; also called His-tagged OsAPX2; purified OsAPX2; source: E. coli BL21 (DE3), pET28a, purified (nickel-nitrilotriacetate agarose; SEC)
  stoichiometry N: 2
